From PMC314469, “Protein Interaction Networks by Proteome Peptide Scanning” (PLoS Biology, 2004)

Assays:
Assay in all cases: SPOT array
[1] = biological target: T1, Boi1 SH3 (BOI1_YEAST), P38041
T1 chain: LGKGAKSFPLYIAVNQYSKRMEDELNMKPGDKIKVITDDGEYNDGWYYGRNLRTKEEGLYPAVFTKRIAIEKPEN

[2] = biological target: T2, Boi2 SH3 (BOI2_YEAST), P39969
T2 chain: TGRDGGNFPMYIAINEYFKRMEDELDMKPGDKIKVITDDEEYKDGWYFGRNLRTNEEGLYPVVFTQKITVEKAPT

[3] = biological target: T3, Rvs167 SH3 (RV167_YEAST), P39743
T3 chain: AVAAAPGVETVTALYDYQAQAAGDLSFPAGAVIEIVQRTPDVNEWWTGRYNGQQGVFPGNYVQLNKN

[4] = biological target: T4, Yfr024 SH3 (LSB3_YEAST), P43603
T4 chain: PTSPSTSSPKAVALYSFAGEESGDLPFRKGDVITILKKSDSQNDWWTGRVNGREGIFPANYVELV

[5] = biological target: T5, Yhr016c SH3 (YSC84_YEAST), P32793
T5 chain: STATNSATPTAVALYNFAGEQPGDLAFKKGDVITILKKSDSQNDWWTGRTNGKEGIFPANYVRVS

Binder: DLKPAYPGRSAHVV [YJL127C 172-185]
- normalised SPOT signal, Boehringer light units (BLU); mean over the file's lines of this peptide [1]: 20.7
- normalised SPOT signal, Boehringer light units (BLU); mean over the file's lines of this peptide [2]: 77.4
- normalised SPOT signal, Boehringer light units (BLU); mean over the file's lines of this peptide [3]: 31.5
- normalised SPOT signal, Boehringer light units (BLU); mean over the file's lines of this peptide [4]: 8830
- normalised SPOT signal, Boehringer light units (BLU); mean over the file's lines of this peptide [5]: 1390

Binder: DLNPDAPPKPQLIP [YPL057C 43-56]
- normalised SPOT signal, Boehringer light units (BLU); mean over the file's lines of this peptide [1]: 96.1
- normalised SPOT signal, Boehringer light units (BLU); mean over the file's lines of this peptide [2]: 41.5
- normalised SPOT signal, Boehringer light units (BLU); mean over the file's lines of this peptide [3]: 11
- normalised SPOT signal, Boehringer light units (BLU); mean over the file's lines of this peptide [4]: 88.2
- normalised SPOT signal, Boehringer light units (BLU); mean over the file's lines of this peptide [5]: 65.9

Binder: DLPPEPPTKLSDSF [YNL284C-B 1135-1148]
- normalised SPOT signal, Boehringer light units (BLU); mean over the file's lines of this peptide [1]: 75
- normalised SPOT signal, Boehringer light units (BLU); mean over the file's lines of this peptide [2]: 30.6
- normalised SPOT signal, Boehringer light units (BLU); mean over the file's lines of this peptide [3]: 30.9
- normalised SPOT signal, Boehringer light units (BLU); mean over the file's lines of this peptide [4]: 56.5
- normalised SPOT signal, Boehringer light units (BLU); mean over the file's lines of this peptide [5]: 105

Binder: DLPPKFPEKPVHLV [YDR444W 186-199]
- normalised SPOT signal, Boehringer light units (BLU); mean over the file's lines of this peptide [1]: 0
- normalised SPOT signal, Boehringer light units (BLU); mean over the file's lines of this peptide [2]: 25.7
- normalised SPOT signal, Boehringer light units (BLU); mean over the file's lines of this peptide [3]: 90.9
- normalised SPOT signal, Boehringer light units (BLU); mean over the file's lines of this peptide [4]: 10300
- normalised SPOT signal, Boehringer light units (BLU); mean over the file's lines of this peptide [5]: 183

Binder: DLQPLEPKKAAAST [YBL007C 805-818]
- normalised SPOT signal, Boehringer light units (BLU); mean over the file's lines of this peptide [1]: 121
- normalised SPOT signal, Boehringer light units (BLU); mean over the file's lines of this peptide [2]: 104
- normalised SPOT signal, Boehringer light units (BLU); mean over the file's lines of this peptide [3]: 30.3
- normalised SPOT signal, Boehringer light units (BLU); mean over the file's lines of this peptide [4]: 37.7
- normalised SPOT signal, Boehringer light units (BLU); mean over the file's lines of this peptide [5]: 0

Binder: DMVPKHPTKRYVPK [YOR039W 203-216]
- normalised SPOT signal, Boehringer light units (BLU); mean over the file's lines of this peptide [1]: 160
- normalised SPOT signal, Boehringer light units (BLU); mean over the file's lines of this peptide [2]: 114
- normalised SPOT signal, Boehringer light units (BLU); mean over the file's lines of this peptide [3]: 94.1
- normalised SPOT signal, Boehringer light units (BLU); mean over the file's lines of this peptide [4]: 1770
- normalised SPOT signal, Boehringer light units (BLU); mean over the file's lines of this peptide [5]: 460

Binder: DPHPEDPRRIYRIY [YNL021W 81-94]
- normalised SPOT signal, Boehringer light units (BLU); mean over the file's lines of this peptide [1]: 660
- normalised SPOT signal, Boehringer light units (BLU); mean over the file's lines of this peptide [2]: 40.8
- normalised SPOT signal, Boehringer light units (BLU); mean over the file's lines of this peptide [3]: 14.1
- normalised SPOT signal, Boehringer light units (BLU); mean over the file's lines of this peptide [4]: 161
- normalised SPOT signal, Boehringer light units (BLU); mean over the file's lines of this peptide [5]: 75.3

Binder: DPLPYSPLKLYDQK [YCR065W 382-395]
- normalised SPOT signal, Boehringer light units (BLU); mean over the file's lines of this peptide [1]: 58.9
- normalised SPOT signal, Boehringer light units (BLU); mean over the file's lines of this peptide [2]: 134
- normalised SPOT signal, Boehringer light units (BLU); mean over the file's lines of this peptide [3]: 62.6
- normalised SPOT signal, Boehringer light units (BLU); mean over the file's lines of this peptide [4]: 117
- normalised SPOT signal, Boehringer light units (BLU); mean over the file's lines of this peptide [5]: 216

Binder: DQAPSLPPKPNTQL [YCL008C 158-171]
- normalised SPOT signal, Boehringer light units (BLU); mean over the file's lines of this peptide [1]: 54.8
- normalised SPOT signal, Boehringer light units (BLU); mean over the file's lines of this peptide [2]: 72.2
- normalised SPOT signal, Boehringer light units (BLU); mean over the file's lines of this peptide [3]: 32.3
- normalised SPOT signal, Boehringer light units (BLU); mean over the file's lines of this peptide [4]: 17600
- normalised SPOT signal, Boehringer light units (BLU); mean over the file's lines of this peptide [5]: 4710

Binder: DQKPLVPIRIYGAI [YPR023C 316-329]
- normalised SPOT signal, Boehringer light units (BLU); mean over the file's lines of this peptide [1]: 181
- normalised SPOT signal, Boehringer light units (BLU); mean over the file's lines of this peptide [2]: 88.8
- normalised SPOT signal, Boehringer light units (BLU); mean over the file's lines of this peptide [3]: 114
- normalised SPOT signal, Boehringer light units (BLU); mean over the file's lines of this peptide [4]: 5150
- normalised SPOT signal, Boehringer light units (BLU); mean over the file's lines of this peptide [5]: 1280

Binder: DRPPDVPRKIIVGR [YBL067C 301-314]
- normalised SPOT signal, Boehringer light units (BLU); mean over the file's lines of this peptide [1]: 96.5
- normalised SPOT signal, Boehringer light units (BLU); mean over the file's lines of this peptide [2]: 62.3
- normalised SPOT signal, Boehringer light units (BLU); mean over the file's lines of this peptide [3]: 92.5
- normalised SPOT signal, Boehringer light units (BLU); mean over the file's lines of this peptide [4]: 2970
- normalised SPOT signal, Boehringer light units (BLU); mean over the file's lines of this peptide [5]: 358
